The values that follow come from the Human Domainome abundance scans (Beltran et al. 2025).

± gives the uncertainty stated by the source.

Sequences and labels used below:
B1: Peroxisome proliferator-activated receptor delta, residues 71 to 145; numbered along this chain, Q03181 (parent)
chain: NMECRVCGDKASGFHYGVHACEGCKGFFRRTIRMKLEYEKCERSCKIQKKNRNKCQYCRFQKCLALGMSHNAIRF

The data set covers variants of B1. In words: abundance fitness (aPCA) (normalised: wild type 0, dead -1); higher = more abundant; growth selection in yeast, the domain comes from the species named. The settings on record: Homo sapiens.
Regarding NMECRVCGDKASGFHYGVHACEGCKYFFRRTIRMKLEYEKCERSCKIQKKNRNKCQYCRFQKCLALGMSHNAIRF [G26Y], the abundance fitness was 0.084 ± 0.06.
Turning to NMECRVCGDKASGFHYGVHACEGCKWFFRRTIRMKLEYEKCERSCKIQKKNRNKCQYCRFQKCLALGMSHNAIRF [G26W], the abundance fitness is -0.174 ± 0.048.
For NMECRVCGDKASGFHYGVHACEGCKVFFRRTIRMKLEYEKCERSCKIQKKNRNKCQYCRFQKCLALGMSHNAIRF [G26V], the abundance fitness is -0.004 ± 0.039.
Take NMECRVCGDKASGFHYGVHACEGCKGRFRRTIRMKLEYEKCERSCKIQKKNRNKCQYCRFQKCLALGMSHNAIRF [F27R]: the abundance fitness was -0.684 ± 0.065.
Turning to NMECRVCGDKASGFHYGVHACEGCKGGFRRTIRMKLEYEKCERSCKIQKKNRNKCQYCRFQKCLALGMSHNAIRF [F27G], the abundance fitness is -0.789 ± 0.076.
On to NMECRVCGDKASGFHYGVHACEGCKGLFRRTIRMKLEYEKCERSCKIQKKNRNKCQYCRFQKCLALGMSHNAIRF [F27L], for which the abundance fitness was -0.784 ± 0.098.
As for NMECRVCGDKASGFHYGVHACEGCKGPFRRTIRMKLEYEKCERSCKIQKKNRNKCQYCRFQKCLALGMSHNAIRF [F27P], the abundance fitness was -0.876 ± 0.14.
The result for NMECRVCGDKASGFHYGVHACEGCKGAFRRTIRMKLEYEKCERSCKIQKKNRNKCQYCRFQKCLALGMSHNAIRF [F27A] reads -0.934 ± 0.12.
As for NMECRVCGDKASGFHYGVHACEGCKGWFRRTIRMKLEYEKCERSCKIQKKNRNKCQYCRFQKCLALGMSHNAIRF [F27W], the abundance fitness was -0.787 ± 0.094.
NMECRVCGDKASGFHYGVHACEGCKGCFRRTIRMKLEYEKCERSCKIQKKNRNKCQYCRFQKCLALGMSHNAIRF [F27C]: the abundance fitness was -0.719 ± 0.16.
As to NMECRVCGDKASGFHYGVHACEGCKGMFRRTIRMKLEYEKCERSCKIQKKNRNKCQYCRFQKCLALGMSHNAIRF [F27M], the abundance fitness is -1.02 ± 0.27.
As to NMECRVCGDKASGFHYGVHACEGCKGKFRRTIRMKLEYEKCERSCKIQKKNRNKCQYCRFQKCLALGMSHNAIRF [F27K], the abundance fitness is -0.772 ± 0.17.
Take NMECRVCGDKASGFHYGVHACEGCKGDFRRTIRMKLEYEKCERSCKIQKKNRNKCQYCRFQKCLALGMSHNAIRF [F27D]: the abundance fitness is -0.41 ± 0.11.
The result for NMECRVCGDKASGFHYGVHACEGCKGEFRRTIRMKLEYEKCERSCKIQKKNRNKCQYCRFQKCLALGMSHNAIRF [F27E] reads -0.85 ± 0.13.
For the variant NMECRVCGDKASGFHYGVHACEGCKGQFRRTIRMKLEYEKCERSCKIQKKNRNKCQYCRFQKCLALGMSHNAIRF [F27Q], the abundance fitness was -0.958 ± 0.21.
Regarding NMECRVCGDKASGFHYGVHACEGCKGVFRRTIRMKLEYEKCERSCKIQKKNRNKCQYCRFQKCLALGMSHNAIRF [F27V], the abundance fitness is -0.951 ± 0.11.
For NMECRVCGDKASGFHYGVHACEGCKGIFRRTIRMKLEYEKCERSCKIQKKNRNKCQYCRFQKCLALGMSHNAIRF [F27I], the abundance fitness was -0.994 ± 0.23.
The same measure for NMECRVCGDKASGFHYGVHACEGCKGYFRRTIRMKLEYEKCERSCKIQKKNRNKCQYCRFQKCLALGMSHNAIRF [F27Y]: -1.06 ± 0.31; for NMECRVCGDKASGFHYGVHACEGCKGFFRDTIRMKLEYEKCERSCKIQKKNRNKCQYCRFQKCLALGMSHNAIRF [R30D]: 0.026 ± 0.065.
For NMECRVCGDKASGFHYGVHACEGCKGFFRSTIRMKLEYEKCERSCKIQKKNRNKCQYCRFQKCLALGMSHNAIRF [R30S], the abundance fitness is -0.088 ± 0.044.
Regarding NMECRVCGDKASGFHYGVHACEGCKGFFRITIRMKLEYEKCERSCKIQKKNRNKCQYCRFQKCLALGMSHNAIRF [R30I], the abundance fitness is -0.31 ± 0.1.
For the variant NMECRVCGDKASGFHYGVHACEGCKGFFRKTIRMKLEYEKCERSCKIQKKNRNKCQYCRFQKCLALGMSHNAIRF [R30K], the abundance fitness is -0.07 ± 0.081.
The result for NMECRVCGDKASGFHYGVHACEGCKGFFRPTIRMKLEYEKCERSCKIQKKNRNKCQYCRFQKCLALGMSHNAIRF [R30P] reads -1.05 ± 0.17; that for NMECRVCGDKASGFHYGVHACEGCKGFFRTTIRMKLEYEKCERSCKIQKKNRNKCQYCRFQKCLALGMSHNAIRF [R30T], -0.07 ± 0.058; that for NMECRVCGDKASGFHYGVHACEGCKGFFRVTIRMKLEYEKCERSCKIQKKNRNKCQYCRFQKCLALGMSHNAIRF [R30V], -0.188 ± 0.049.
Regarding NMECRVCGDKASGFHYGVHACEGCKGFFRETIRMKLEYEKCERSCKIQKKNRNKCQYCRFQKCLALGMSHNAIRF [R30E], the abundance fitness was 0.074 ± 0.045.
Consider NMECRVCGDKASGFHYGVHACEGCKGFFRYTIRMKLEYEKCERSCKIQKKNRNKCQYCRFQKCLALGMSHNAIRF [R30Y], for which the abundance fitness is -0.056 ± 0.087.
With NMECRVCGDKASGFHYGVHACEGCKGFFRATIRMKLEYEKCERSCKIQKKNRNKCQYCRFQKCLALGMSHNAIRF [R30A], the abundance fitness is -0.359 ± 0.055.
On to NMECRVCGDKASGFHYGVHACEGCKGFFRHTIRMKLEYEKCERSCKIQKKNRNKCQYCRFQKCLALGMSHNAIRF [R30H], for which the abundance fitness was -0.067 ± 0.065.
As for NMECRVCGDKASGFHYGVHACEGCKGFFRGTIRMKLEYEKCERSCKIQKKNRNKCQYCRFQKCLALGMSHNAIRF [R30G], the abundance fitness is -0.335 ± 0.043.
For NMECRVCGDKASGFHYGVHACEGCKGFFRCTIRMKLEYEKCERSCKIQKKNRNKCQYCRFQKCLALGMSHNAIRF [R30C], the abundance fitness is -0.275 ± 0.08.
Consider NMECRVCGDKASGFHYGVHACEGCKGFFRNTIRMKLEYEKCERSCKIQKKNRNKCQYCRFQKCLALGMSHNAIRF [R30N], for which the abundance fitness was determined as 0.021 ± 0.1.
As to NMECRVCGDKASGFHYGVHACEGCKGFFRMTIRMKLEYEKCERSCKIQKKNRNKCQYCRFQKCLALGMSHNAIRF [R30M], the abundance fitness was -0.176 ± 0.072.
As for NMECRVCGDKASGFHYGVHACEGCKGFFLRTIRMKLEYEKCERSCKIQKKNRNKCQYCRFQKCLALGMSHNAIRF [R29L], the abundance fitness turned out to be 0.139 ± 0.035.
With NMECRVCGDKASGFHYGVHACEGCKGFFARTIRMKLEYEKCERSCKIQKKNRNKCQYCRFQKCLALGMSHNAIRF [R29A], the abundance fitness was determined as 0.191 ± 0.033.
Take NMECRVCGDKASGFHYGVHACEGCKGFFIRTIRMKLEYEKCERSCKIQKKNRNKCQYCRFQKCLALGMSHNAIRF [R29I]: the abundance fitness worked out at 0.132 ± 0.065.
